Measured values from the Human Domainome abundance scans (Beltran et al. 2025).
± gives the uncertainty stated by the source.

B1: Intersectin-1, residues 1156 to 1213; numbered along this chain, Q15811 (parent)
chain: AVCQVIGMYDYTAQNDDELAFNKGQIINVLNKEDPDWWKGEVNGQVGLFPSNYVKLTT

Variants of: B1
Assay: abundance fitness (aPCA) (normalised: wild type 0, dead -1); higher = more abundant; growth selection in yeast, the domain comes from the species named
Settings: Homo sapiens

Abundance fitness, by site and new letter:
V29: E -0.925 ± 0.19; S -0.827 ± 0.13; T -0.788 ± 0.16; C -0.219 ± 0.13; Q -1.01 ± 0.19; G -0.742 ± 0.098; H -1.03 ± 0.26; D -0.739 ± 0.14; L -0.323 ± 0.099; I -0.617 ± 0.16; W -0.672 ± 0.14; K -0.699 ± 0.19; R -0.9 ± 0.11; N -0.721 ± 0.23; Y -0.504 ± 0.24
N22: S 0.009 ± 0.084; P -0.062 ± 0.14; V -0.06 ± 0.086; M 0.02 ± 0.14; W -0.466 ± 0.13; Y -0.422 ± 0.14
K23: R 0.137 ± 0.08; H -0.298 ± 0.15; W -0.852 ± 0.16; Y -0.673 ± 0.16; D -0.859 ± 0.23; F -0.613 ± 0.21; C -0.275 ± 0.14; P -0.921 ± 0.21; N -0.494 ± 0.24; Q -0.043 ± 0.14; S -0.214 ± 0.09; V -0.21 ± 0.097; A 0.215 ± 0.097; G -0.701 ± 0.11; T 0.065 ± 0.11; L -0.77 ± 0.13; I -0.849 ± 0.25; M -0.487 ± 0.17; E -0.011 ± 0.11
E33: I -0.451 ± 0.35; D -0.047 ± 0.16; K -0.236 ± 0.18; L -0.497 ± 0.14; F -0.61 ± 0.22; N -0.516 ± 0.23; G -0.241 ± 0.098; H -0.373 ± 0.18; A -0.211 ± 0.11
L30: P -1.04 ± 0.24; T -0.476 ± 0.15; A -0.911 ± 0.14; I 0.043 ± 0.18; N -0.505 ± 0.3; H -0.7 ± 0.37; F -0.123 ± 0.14; S -0.758 ± 0.14; Y -0.32 ± 0.22; K -0.825 ± 0.31; D -0.917 ± 0.27; C -0.867 ± 0.24; E -0.978 ± 0.31; Q -0.257 ± 0.18; R -0.712 ± 0.12; G -0.933 ± 0.14; V -0.081 ± 0.085; M -0.412 ± 0.15
I26: L 0.18 ± 0.12; V 0.297 ± 0.12; W -0.505 ± 0.17; T 0.163 ± 0.15; A -0.237 ± 0.13; K -0.084 ± 0.19; S -0.554 ± 0.14; P -0.561 ± 0.23; F -0.523 ± 0.3; D -0.807 ± 0.22; G -0.857 ± 0.14; C -0.149 ± 0.17; M -0.462 ± 0.2; Q -0.304 ± 0.22; H -0.332 ± 0.26; E -0.278 ± 0.16; R -0.131 ± 0.094
N31: A 0.037 ± 0.12; S 0.006 ± 0.098; R -0.373 ± 0.094; W -0.287 ± 0.12; I -0.559 ± 0.27; P -0.833 ± 0.18; Q -0.099 ± 0.13; K -0.319 ± 0.15; C 0.287 ± 0.16; M -0.275 ± 0.13; G -0.076 ± 0.088; V -0.313 ± 0.11; L -0.631 ± 0.12; H -0.095 ± 0.23; Y -0.525 ± 0.27; F -1.05 ± 0.42; T -0.159 ± 0.11; E 0.196 ± 0.15; D 0.223 ± 0.16
K32: Y -0.341 ± 0.21; W -0.109 ± 0.13; S -0.16 ± 0.13; D -0.296 ± 0.15; P -0.736 ± 0.2; C -0.147 ± 0.14; G -0.527 ± 0.095; Q -0.035 ± 0.17; T -0.093 ± 0.14; H -0.449 ± 0.21; F -0.576 ± 0.23; A 0.093 ± 0.095; L -0.38 ± 0.093; R 0.066 ± 0.089; N -0.339 ± 0.18; M -0.039 ± 0.15
G24: Q -0.44 ± 0.15; E -0.895 ± 0.15; S -0.524 ± 0.099; W -0.528 ± 0.12; V -0.895 ± 0.13; F -0.739 ± 0.26; P -0.825 ± 0.16; T -0.599 ± 0.16; M -0.693 ± 0.17; I -0.682 ± 0.26; K -0.571 ± 0.17; N -0.348 ± 0.19; D -0.579 ± 0.18; A -0.854 ± 0.12
I27: D -0.695 ± 0.21; G -0.746 ± 0.1; M -0.696 ± 0.22; V -0.297 ± 0.096; P -0.612 ± 0.17; R -0.85 ± 0.1; W -0.908 ± 0.18; E -0.811 ± 0.2; N -0.765 ± 0.28; H -0.748 ± 0.25; A -0.789 ± 0.14; Q -1.05 ± 0.23; F -0.805 ± 0.22; Y -0.564 ± 0.2; T -0.859 ± 0.16; L -0.373 ± 0.11; S -0.915 ± 0.14; K -0.81 ± 0.23
N28: P -0.942 ± 0.38; M -0.298 ± 0.24; T 0.281 ± 0.23; G -0.732 ± 0.16; F -0.243 ± 0.4; D -0.284 ± 0.2; S 0.186 ± 0.18; Y -0.011 ± 0.44; E -0.156 ± 0.22; V -0.423 ± 0.17; A -0.225 ± 0.15; I -0.451 ± 0.31; K -0.014 ± 0.33; Q -0.399 ± 0.29; R -0.065 ± 0.13; C -0.632 ± 0.25
